Columns and labels:
Assay in all cases: co-IP; substrate (Hmg2-GFP, Ste6*-GFP, CPY*-GFP with GFP-Trap; Pdr5*-Myc with Myc Trap) precipitated from yeast microsomes solubilised in Tween IP buffer (500 mM NaCl, 50 mM Tris pH 7.5, 10 mM EDTA, 1.5% Tween-20), overnight 4°C; blots with anti-HA, anti-Cdc48
[1] = biological target: Ste6*-GFP (S. cerevisiae) (UniProt P12866)
Hmg2-GFP (S. cerevisiae) = Hmg2-GFP (S. cerevisiae) (UniProt P12684)
[2] = biological target: Pdr5*-Myc (S. cerevisiae) (UniProt P33302)
Chain of UniProt P33302 (P33302 whole entry): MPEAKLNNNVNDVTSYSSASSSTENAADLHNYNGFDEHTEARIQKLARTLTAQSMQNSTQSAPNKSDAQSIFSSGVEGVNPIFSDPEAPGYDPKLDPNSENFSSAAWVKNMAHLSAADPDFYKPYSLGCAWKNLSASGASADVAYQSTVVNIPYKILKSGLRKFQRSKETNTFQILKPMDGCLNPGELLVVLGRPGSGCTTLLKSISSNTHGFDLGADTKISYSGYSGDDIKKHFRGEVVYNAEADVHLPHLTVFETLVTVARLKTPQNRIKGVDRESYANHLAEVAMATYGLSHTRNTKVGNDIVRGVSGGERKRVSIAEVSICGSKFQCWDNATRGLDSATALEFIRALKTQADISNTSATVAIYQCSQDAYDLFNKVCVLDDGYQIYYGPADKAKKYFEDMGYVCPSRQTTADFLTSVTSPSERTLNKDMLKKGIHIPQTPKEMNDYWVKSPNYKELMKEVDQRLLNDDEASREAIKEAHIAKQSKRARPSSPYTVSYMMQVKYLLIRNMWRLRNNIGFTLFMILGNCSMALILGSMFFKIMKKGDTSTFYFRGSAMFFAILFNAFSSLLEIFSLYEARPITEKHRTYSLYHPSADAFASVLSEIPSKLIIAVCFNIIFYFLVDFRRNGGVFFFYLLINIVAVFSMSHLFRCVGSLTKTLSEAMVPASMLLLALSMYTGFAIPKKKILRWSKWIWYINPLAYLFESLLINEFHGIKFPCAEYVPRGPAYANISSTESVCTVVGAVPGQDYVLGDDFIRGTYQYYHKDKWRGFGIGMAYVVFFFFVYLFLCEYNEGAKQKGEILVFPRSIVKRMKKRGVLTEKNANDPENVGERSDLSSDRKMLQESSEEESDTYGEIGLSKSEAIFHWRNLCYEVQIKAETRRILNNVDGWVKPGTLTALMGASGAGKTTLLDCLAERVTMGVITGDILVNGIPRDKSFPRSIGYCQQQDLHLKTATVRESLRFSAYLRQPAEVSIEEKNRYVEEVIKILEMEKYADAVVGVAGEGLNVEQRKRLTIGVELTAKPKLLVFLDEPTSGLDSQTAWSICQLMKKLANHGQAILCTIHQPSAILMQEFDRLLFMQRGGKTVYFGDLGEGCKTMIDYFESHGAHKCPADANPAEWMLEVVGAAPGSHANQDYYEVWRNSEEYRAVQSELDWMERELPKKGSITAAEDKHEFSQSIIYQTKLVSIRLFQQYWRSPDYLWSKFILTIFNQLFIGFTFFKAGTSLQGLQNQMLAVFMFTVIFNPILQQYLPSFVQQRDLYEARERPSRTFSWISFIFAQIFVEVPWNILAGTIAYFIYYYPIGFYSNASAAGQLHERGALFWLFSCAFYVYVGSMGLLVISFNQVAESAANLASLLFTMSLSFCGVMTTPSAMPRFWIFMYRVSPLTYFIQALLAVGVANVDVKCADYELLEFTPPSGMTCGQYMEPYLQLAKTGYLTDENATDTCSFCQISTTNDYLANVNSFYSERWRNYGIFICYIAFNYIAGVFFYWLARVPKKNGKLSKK

Chain of Dfm1-5Ashp (Q12743 whole entry): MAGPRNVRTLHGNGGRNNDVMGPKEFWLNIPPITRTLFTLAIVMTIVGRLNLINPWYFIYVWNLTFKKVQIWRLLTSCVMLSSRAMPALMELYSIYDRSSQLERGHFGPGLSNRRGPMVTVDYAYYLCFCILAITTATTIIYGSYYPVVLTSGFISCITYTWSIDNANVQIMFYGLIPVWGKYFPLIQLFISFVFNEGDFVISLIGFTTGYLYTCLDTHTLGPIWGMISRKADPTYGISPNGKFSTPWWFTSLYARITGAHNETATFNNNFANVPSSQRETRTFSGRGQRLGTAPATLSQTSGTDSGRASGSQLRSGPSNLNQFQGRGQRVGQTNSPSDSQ
Chain of UniProt P12866 (P12866 whole entry): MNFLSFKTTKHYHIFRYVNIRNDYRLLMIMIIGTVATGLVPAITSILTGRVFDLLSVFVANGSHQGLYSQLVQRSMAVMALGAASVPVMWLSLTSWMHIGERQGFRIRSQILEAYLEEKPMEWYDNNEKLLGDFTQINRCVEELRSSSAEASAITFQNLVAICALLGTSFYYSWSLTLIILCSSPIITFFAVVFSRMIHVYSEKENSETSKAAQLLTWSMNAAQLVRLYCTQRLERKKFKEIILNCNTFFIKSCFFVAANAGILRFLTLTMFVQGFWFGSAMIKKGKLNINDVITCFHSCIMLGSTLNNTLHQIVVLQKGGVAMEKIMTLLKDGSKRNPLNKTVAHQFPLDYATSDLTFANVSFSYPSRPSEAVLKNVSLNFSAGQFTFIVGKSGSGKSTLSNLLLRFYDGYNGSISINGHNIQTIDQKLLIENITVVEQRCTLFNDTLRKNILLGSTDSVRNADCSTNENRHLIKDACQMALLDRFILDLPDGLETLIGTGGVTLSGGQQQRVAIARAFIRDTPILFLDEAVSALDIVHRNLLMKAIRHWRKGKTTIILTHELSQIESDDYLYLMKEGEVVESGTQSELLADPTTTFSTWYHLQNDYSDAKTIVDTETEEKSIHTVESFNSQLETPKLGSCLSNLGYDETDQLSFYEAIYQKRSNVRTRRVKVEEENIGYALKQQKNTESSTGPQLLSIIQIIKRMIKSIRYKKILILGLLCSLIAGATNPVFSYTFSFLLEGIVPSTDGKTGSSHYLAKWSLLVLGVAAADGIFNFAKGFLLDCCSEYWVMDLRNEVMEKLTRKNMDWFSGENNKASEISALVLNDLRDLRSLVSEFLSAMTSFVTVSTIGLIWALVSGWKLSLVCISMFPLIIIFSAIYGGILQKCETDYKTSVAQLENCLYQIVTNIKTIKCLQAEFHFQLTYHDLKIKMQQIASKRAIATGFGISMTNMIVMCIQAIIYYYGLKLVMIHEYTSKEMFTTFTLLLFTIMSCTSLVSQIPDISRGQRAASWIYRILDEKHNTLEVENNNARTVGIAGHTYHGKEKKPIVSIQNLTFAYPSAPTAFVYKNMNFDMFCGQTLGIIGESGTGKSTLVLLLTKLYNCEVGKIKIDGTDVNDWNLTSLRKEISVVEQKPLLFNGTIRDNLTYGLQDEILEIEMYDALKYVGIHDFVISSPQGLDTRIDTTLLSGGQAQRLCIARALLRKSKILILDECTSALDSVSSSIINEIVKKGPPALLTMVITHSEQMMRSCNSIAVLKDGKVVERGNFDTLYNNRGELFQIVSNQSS
Chain of UniProt P12684 (P12684 whole entry): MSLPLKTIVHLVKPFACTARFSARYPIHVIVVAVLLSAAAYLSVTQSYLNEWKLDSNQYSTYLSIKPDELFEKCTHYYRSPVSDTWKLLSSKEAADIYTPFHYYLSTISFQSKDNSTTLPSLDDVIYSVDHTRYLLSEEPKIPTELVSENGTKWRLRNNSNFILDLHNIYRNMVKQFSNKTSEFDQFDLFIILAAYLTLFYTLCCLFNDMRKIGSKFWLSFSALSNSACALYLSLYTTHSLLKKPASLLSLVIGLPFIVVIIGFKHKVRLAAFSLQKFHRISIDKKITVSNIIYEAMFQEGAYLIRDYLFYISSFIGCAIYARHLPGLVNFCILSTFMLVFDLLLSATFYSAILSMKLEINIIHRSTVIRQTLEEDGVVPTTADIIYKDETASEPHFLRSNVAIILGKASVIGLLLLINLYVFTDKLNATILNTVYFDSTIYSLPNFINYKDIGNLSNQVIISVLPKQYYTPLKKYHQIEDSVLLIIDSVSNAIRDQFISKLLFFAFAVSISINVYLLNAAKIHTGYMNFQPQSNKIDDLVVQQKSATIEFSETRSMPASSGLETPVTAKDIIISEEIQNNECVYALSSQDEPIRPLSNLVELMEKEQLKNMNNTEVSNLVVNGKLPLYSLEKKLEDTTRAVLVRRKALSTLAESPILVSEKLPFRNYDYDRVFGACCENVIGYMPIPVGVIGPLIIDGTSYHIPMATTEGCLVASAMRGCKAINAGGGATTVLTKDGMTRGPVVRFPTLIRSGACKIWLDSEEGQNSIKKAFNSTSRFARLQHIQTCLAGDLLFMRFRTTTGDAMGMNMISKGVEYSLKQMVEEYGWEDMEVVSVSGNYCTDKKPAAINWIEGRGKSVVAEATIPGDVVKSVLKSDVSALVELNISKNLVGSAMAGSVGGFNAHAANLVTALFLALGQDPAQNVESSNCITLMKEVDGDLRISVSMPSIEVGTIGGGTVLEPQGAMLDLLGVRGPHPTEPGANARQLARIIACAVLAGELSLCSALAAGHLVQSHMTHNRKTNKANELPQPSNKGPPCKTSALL

fraction of Dfm1-5Ashp bound compared with wild-type Dfm1 [1]: < 5%
fraction of Dfm1-5Ashp bound compared with wild-type Dfm1 (Hmg2-GFP (S. cerevisiae)): < 5%
fraction of Dfm1-5Ashp bound compared with wild-type Dfm1 [2]: < 5%
Substance: Dfm1-5Ashp (from UniProt Q12743 1-341) (natural protein)

Reference: article PMC8641752
